Results from patent US6562591 (RIGEL PHARMACEUTICALS, dated 2003).

T1: FLAG-TRAF2, full length human Traf2 with N-terminal FLAG epitope tag (human, UniProt Q12933 2-501)
T1 construct: mature; also called FLAG-tagged TRAF2; TRAF2(WT)
T1 sequence: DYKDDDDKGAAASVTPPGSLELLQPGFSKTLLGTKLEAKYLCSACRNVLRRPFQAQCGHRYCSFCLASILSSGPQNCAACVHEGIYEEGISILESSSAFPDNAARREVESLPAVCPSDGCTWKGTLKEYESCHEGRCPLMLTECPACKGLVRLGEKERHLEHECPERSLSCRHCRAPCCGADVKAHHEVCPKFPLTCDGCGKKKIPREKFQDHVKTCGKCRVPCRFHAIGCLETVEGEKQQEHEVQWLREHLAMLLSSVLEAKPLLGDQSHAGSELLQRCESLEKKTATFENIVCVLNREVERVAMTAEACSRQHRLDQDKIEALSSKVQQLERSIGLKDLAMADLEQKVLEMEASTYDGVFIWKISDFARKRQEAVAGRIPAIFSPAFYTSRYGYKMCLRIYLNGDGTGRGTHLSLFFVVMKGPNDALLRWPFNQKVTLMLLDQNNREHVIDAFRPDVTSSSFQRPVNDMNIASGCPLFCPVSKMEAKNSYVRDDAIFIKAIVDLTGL


Columns and labels:
Assay in all cases: co-immunoprecipitation: anti-HA IP, anti-FLAG blot, Phoenix-A cell lysates
[1] = molecular target: T2, HA-Tnik(WT), full length human Tnik isoform 1 with N-terminal HA epitope tag (human, UniProt Q9UKE5 1-1360)
T2 construct: Expressed transiently in Phoenix-A cells and immunoprecipitated from lysate; also called Tnik1
Text: (§1) Washed precipitates were subjected to SDS-PAGE analysis and Western blotting. Supersignal and Supersignal West Duro substrates (Piers) were used as detection systems for the Western blotting.
(§2) Interaction of Tnik with TRAF2 and NCK—To confirm the interaction of Tnik with TRAF2, N-terminal HA-tagged Tnik was transiently expressed in Phoenix-A cells and HA-Tnik was immunoprecipitated by an anti-HA antibody. The immune complexes were resolved on SDS-PAGE and immunoblotted with an anti-TRAF2 antibody. Endogenous TRAF2 specifically co-immunoprecipitated with HA-Tnik (FIG. 6, top panel). To map the interaction domain on Tnik that mediated its interaction with TRAF2, we constructed several truncated forms of HA-tagged Tnik (FIG. 7) and co-expressed them with FLAG-tagged TRAF2. Anti-HA immunoprecipitates were then blotted with an anti-FLAG antibody to detect the co-immunoprecipitated FLAG-TRAF2. […] Expression levels of the transfected proteins were controlled by immunoblotting cell lysates with anti-HA and anti-FLAG antibodies (FIG. 8, middle and bottom panels).
(§3) We then mapped the domains on TRAF2 that mediated the interaction with Tnik. FLAG-tagged TRAF2 mutants (FIG. 9) were co-expressed with HA-Tnik and the lysates were subjected to anti-HA immunoprecipitation. The immune complexes were then blotted with an anti-FLAG antibody.

[2] = molecular target: T3, FLAG-NCK, full length human NCK with N-terminal FLAG epitope tag (human, UniProt P16333 2-377)
T3 construct: mature; also called FLAG-tagged NCK
Text: as §1, §2, §3

[3] = molecular target: T1, FLAG-TRAF2, full length human Traf2 …
Text: as §1, §2, §3

| Binder | binding result [1] | binding result [2] | binding result [3] |
| --- | --- | --- | --- |
| FLAG-TRAF2(1-272) (other, human) DYKDDDDKGMAAASVTPPGSLELLQPGFSKTLLGTKLEAKYLCSACRNVLRRPFQAQCGHRYCSFCLASILSSGPQNCAACVHEGIYEEGISILESSSAFPDNAARREVESLPAVCPSDGCTWKGTLKEYESCHEGRCPLMLTECPACKGLVRLGEKERHLEHECPERSLSCRHCRAPCCGADVKAHHEVCPKFPLTCDGCGKKKIPREKFQDHVKTCGKCRVPCRFHAIGCLETVEGEKQQEHEVQWLREHLAMLLSSVLEAKPLLGDQSHAGSELLQRC | no binding |  |  |
| HA-Tnik(C2), GCKH domain of Tnik (other) AYPYDVPDYARKISVVNVNPTNIRPHSDTPEIRKYKKRFNSEILCAALWGVNLLVGTENGLMLLDRSGQGKVYNLINRRRFQQMDVLEGLNVLVTISGKKNKLRVYYLSWLRNRILHNDPEVEKKQGWITVGDLEGCIHYKVVKYERIKFLVIALKNAVEIYAWAPKPYHKFMAFKSFADLQHKPLLVDLTVEEGQRLKVIFGSHTGFHVIDVDSGNSYDIYIPSHIQGNITPHAIVILPKTDGMEMLVCYEDEGVYVNTYGRITKDVVLQWGEMPTSVAYIHSNQIMGWGEKAIEIRSVETGHLDGVFMHKRAQRLKFLCERNDKVFFASVRSGGSSQVFFMTLNRNSMMNW |  | no binding |  |
| HA-Tnik(N1), Tnik mutant with only the kinase domain (enzyme) AYPYDVPDYAMASDSPARSLDEIDLSALRDPAGIFELVELVGNGTYGQVYKGRHVKTGQLAAIKVMDVTGDEEEEIKQEINMLKKYSHHRNIATYYGAFIKKNPPGMDDQLWLVMEFCGAGSVTDLIKNTKGNTLKEEWIAYICREILRGLSHLHQHKVIHRDIKGQNVLLTENAEVKLVDFGVSAQLDRTVGRRNTFIGTPYWMAPEVIACDENPDATYDFKSDLWSLGITAIEMAEGAPPLCDMHPMRALFLIPRNPAPRLKSKKWSKKFQSFIESCLVKNHSQRPATEQLMKHPFIRDQPNERQVRIQLKDH |  | no binding | no binding |
